In patent US20250009799A1:

Target: SH2D3A peptide on HLA-A*02:01 (human)
Test: T2/peptide TDCC potency screen with TCR2-T-IL12 cells, peptide titration; reference: DCAF4L2 target peptide; full-length, on cells
Details: chains Valpha:Vbeta

EC50 of peptide relative to the DCAF4L2 target peptide: 87 fold
B1: TCR2 (protein)
chain 1: EDQVTQSPEALRLQEGESSSLNCSYTVSGLRGLFWYRQDPGKGPEFLFTLYSAGEEKEKERLKATLTKKESFLHITAPKPEDSATYLCAVQAWGGGSQGNLIFGKGTKLSVKP
chain 2: DSGVTQTPKHLITATGQRVTLRCSPRSGDLSVYWYQQSLDQGLQFLIQYYNGEERAKGNILERFSAQQFPDLHSELNLSSLELGDSALYFCASSAGDRGYEQYFGPGTRLTVT
